Molecular target: the molecule itself
Assay: SEC; size-exclusion chromatography after elution from the His Trap Nickel column; estimated apparent molecular weight 113 kDa

B1: Human kynurenine aminotransferase 1 (hKYAT1), wild-type, recombinant (enzyme)
chain: MAKQLQARRLDGIDYNPWVEFVKLASEHDVVNLGQGFPDFPPPDFAVEAFQHAVSGDFMLNQYTKTFGYPPLTKILASFFGELLGQEIDPLRNVLVTVGGYGALFTAFQALVDEGDEVIIIEPFFDCYEPMTMMAGGRPVFVSLKPGPIQNGELGSSSNWQLDPMELAGKFTSRTKALVLNTPNNPLGKVFSREELELVASLCQQHDVVCITDEVYQWMVYDGHQHISIASLPGMWERTLTIGSAGKTFSATGWKVGWVLGPDHIMKHLRTVHQNSVFHCPTQSQAAVAESFEREQLLFRQPSSYFVQFPQAMQRCRDHMIRSLQSVGLKPIIPQGSYFLITDISDFKRKMPDLPGAVDEPYDRRFVKWMIKNKGLVAIPVSIFYSVPHQKHFDHYIRFCFVKDEATLQAMDEKLRKWKVEL
notes: human kynurenine aminotransferase 1 (KYAT1), wild type; The PDB entries are cited crystal structures of human KYAT1, not necessarily of this construct; also called KAT1; cysteine-S-conjugate beta-lyase 1; source: E. coli BL21, purified (His Trap Nickel column, size-exclusion chromatography)
- stoichiometry N: 2
